Values belong to the binder of their own block, whether it stands above or below them.
Key:
[1] = molecular target: T1, human IGSF11 (VSIG3) expressed on cells (human, UniProt Q5DX21 23-431); assay: IgG FACS Colo741
T1 sequence: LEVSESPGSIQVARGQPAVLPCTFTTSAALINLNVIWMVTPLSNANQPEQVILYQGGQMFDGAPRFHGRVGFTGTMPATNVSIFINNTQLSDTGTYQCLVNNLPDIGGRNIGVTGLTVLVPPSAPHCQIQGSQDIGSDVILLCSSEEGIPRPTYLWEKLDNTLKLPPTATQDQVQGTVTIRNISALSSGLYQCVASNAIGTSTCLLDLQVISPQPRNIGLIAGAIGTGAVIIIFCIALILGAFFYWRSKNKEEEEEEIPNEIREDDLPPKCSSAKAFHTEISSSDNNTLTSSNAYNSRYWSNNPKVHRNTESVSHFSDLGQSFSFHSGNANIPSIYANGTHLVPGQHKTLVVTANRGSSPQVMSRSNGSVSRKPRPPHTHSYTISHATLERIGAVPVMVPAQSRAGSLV
Description: (§1) Unbound antibodies were removed by washing the cells three time with FACS buffer. Bound antibodies were detected with a mouse anti-human IgG antibody conjugated with AlexaFluor647.

[2] = molecular target: T2, murine IGSF11 expressed on cells (mouse, UniProt P0C673 23-428); assay: IgG FACS MC38-IGSF11
T2 construct: MC38-IGSF11, CT26-IGSF11, MC38-wt (naturally expresses murine IGSF11)
T2 sequence: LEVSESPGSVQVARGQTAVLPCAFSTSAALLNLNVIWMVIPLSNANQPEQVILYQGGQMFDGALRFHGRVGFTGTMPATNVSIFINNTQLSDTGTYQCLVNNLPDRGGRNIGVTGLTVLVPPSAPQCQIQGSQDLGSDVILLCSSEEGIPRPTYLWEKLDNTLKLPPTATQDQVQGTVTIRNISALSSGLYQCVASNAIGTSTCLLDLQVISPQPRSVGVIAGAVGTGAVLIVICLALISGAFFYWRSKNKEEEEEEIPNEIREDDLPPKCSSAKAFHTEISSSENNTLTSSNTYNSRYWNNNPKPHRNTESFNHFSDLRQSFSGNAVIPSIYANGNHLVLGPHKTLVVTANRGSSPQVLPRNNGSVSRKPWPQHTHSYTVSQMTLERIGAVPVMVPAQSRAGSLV
Description: as §1

[3] = molecular target: T1, human IGSF11 (VSIG3) expressed on cells; assay: IgG FACS MDA-MB-231-IGSF11
Description: as §1

[4] = molecular target: T3, extracellular domain (ECD) of human IGSF11 (VSIG3), recombinant (human, UniProt Q5DX21 23-241); assay: KinExA, Fab as CBP 80 and 800 pM, n-curve
T3 construct: biotinylated where captured on streptavidin; tags of the reagent not always stated; also called IGSF11 (ECD domain); ECD-IGSF11
T3 sequence: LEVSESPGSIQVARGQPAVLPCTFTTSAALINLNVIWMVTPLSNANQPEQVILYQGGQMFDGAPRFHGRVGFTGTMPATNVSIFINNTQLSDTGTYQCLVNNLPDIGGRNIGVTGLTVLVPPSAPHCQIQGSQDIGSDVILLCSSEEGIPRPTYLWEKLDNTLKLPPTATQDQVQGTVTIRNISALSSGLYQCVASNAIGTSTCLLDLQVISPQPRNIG
Protocol: (§2) Solution-based binding affinities were determined using the Kinetic Exclusion Assay (KinExA) 4000 system as described below, where binding partners were combined and allowed to reach equilibrium prior to measurement.
(§3) Briefly, anti-IGSF11 ABPs of the invention as Fabs were used as Constant Binding Partner (CBP) and human recombinant IGSF11 ECD was used as Titrant. After reaching equilibrium, free CBP were detected using PMMA beads coated with IGSF11 ECD or IGSF11 IgC2-domain Fc-fusion protein and an anti-human F(ab′)2 antibody conjugated with AlexaFluor647. […] The CBP was incubated with different Titrant concentrations for 16 h (or 72-90 h) to reach equilibrium. The equilibrium binding curves of different CBP concentrations were measured in duplicates and drift correction was applied. The n-curve analysis tool within the KinExA Pro Software version 4.4.26 was applied to obtain one KD value per set of binding curves by finding the best fit of a 1:1 binding model to the data.

[5] = molecular target: T3, extracellular domain (ECD) of human …; assay: KinExA, Fab as CBP 15 pM, single binding curve
Protocol: as §2, §3

- EC50 [1]: < 0.5 nM
- EC50 [2]: < 0.5 nM
- EC50 [3]: < 0.5 nM
B1: D-222 (IgG format) (antibody, V domains shown)
VH: EVQLVESGGGLVKPGGSLRLSCAASGFTFSHAWISWVRQAPGKGLEWVGQIKGGPGSGGTSYAEPVKGRFTISRDDSKNTLYLQMNSLKTEDTAVYYCARLGIYSGFDYWGQGTLVTVSS
VL: SYELTQPPSVSVSPGQTASITCSGDKLGDKYASWYQQKPGQSPVLVIYQDSKRPSGIPERFSGSNSGNTATLTISGTQAEDEADYYCHTYSHRPEIVVFGGGTKLTVL

- Kd [4]: < 0.15 nM
B2: D-222 (Fab, KinExA constant binding partner) (Fab, V domains shown)
VH: B1 VH
VL: B1 VL
notes: Fab

- Kd [5]: < 0.01 nM
B3: D-114 (Fab, KinExA constant binding partner) (Fab, V domains shown)
VH: EVQLLESGGGLVQPGGSLRLSCAASGFTFQFSALSWVRQAPGKGLEWVSAISYGGGSKYYADSVKGRFTISRDNSKNTLYLQMNSLRAEDTAVYYCARDSRDAYGVAFDLWGQGTMVTVSS
VL: ASVLTQPPSVSAAPGQKVTISCSGSSSNIGNNYVSWYQQLPGTAPKLLIYDNNKRPSGIPDRFSGSKSGTSATLGITGLQAEDEADYYCLSYKLSPGAYVFGGGTKLTVL
notes: Fab
